Read-outs that look alike come from different tables or passages of the source.
How the values were obtained:
Assay in all cases: SEC
[1] = biological target: endogenous Xenopus Cdt1/RLF-B (Xenopus (endogenous in egg extract)) (UniProt Q9I9A7)
[2] = biological target: endogenous Xenopus Cdt1/RLF-B (Xenopus (endogenous in egg extract)) (UniProt Q9I9A7); remark: listed apart in the source
[3] = biological target: endogenous Xenopus Cdt1/RLF-B (Xenopus (endogenous in egg extract)) (UniProt Q9I9A7); remark: listed apart in the source

UniProt Q9I9A7, sequence (Q9I9A7 whole entry): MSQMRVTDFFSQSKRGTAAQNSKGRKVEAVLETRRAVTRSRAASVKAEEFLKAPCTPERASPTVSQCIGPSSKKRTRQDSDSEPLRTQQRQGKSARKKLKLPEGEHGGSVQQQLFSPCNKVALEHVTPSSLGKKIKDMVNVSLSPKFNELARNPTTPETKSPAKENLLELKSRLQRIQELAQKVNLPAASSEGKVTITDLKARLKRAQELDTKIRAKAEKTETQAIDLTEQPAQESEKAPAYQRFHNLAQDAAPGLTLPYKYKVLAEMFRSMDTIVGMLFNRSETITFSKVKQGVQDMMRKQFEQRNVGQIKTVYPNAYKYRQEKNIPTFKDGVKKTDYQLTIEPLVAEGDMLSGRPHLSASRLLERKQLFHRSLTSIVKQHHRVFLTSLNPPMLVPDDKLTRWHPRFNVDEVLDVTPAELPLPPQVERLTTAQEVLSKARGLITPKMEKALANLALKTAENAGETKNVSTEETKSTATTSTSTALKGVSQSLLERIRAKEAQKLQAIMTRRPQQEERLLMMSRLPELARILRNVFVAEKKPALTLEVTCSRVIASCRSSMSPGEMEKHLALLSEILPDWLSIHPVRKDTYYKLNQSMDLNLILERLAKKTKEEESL

“endogenous Xenopus geminin (from UniProt O93352 1-219) (natural protein)” showed a percent of geminin co-fractionating with Cdt1/RLF-B [1] of 24%, a percent of geminin co-fractionating with Cdt1/RLF-B [2] of 45% and a percent of geminin co-fractionating with Cdt1/RLF-B [3] of 61%. The percent of geminin in the smaller complex without Cdt1/RLF-B [3] was greater than 95%.

Reference: paper PMC3605701
